In US20200339692A1 (JIANGSU HENGRUI MEDICINE, published 2020):
Like-named read-outs stand apart in the source and are kept apart here. Values belong to the binder of their own block, whether it stands above or below them.

How the values were obtained:
[1] = target: T1, human PD-L1 (ligand blocking test) (human, UniProt Q9NZQ7 19-238, limits assumed); experiment: blocking of B7-1 binding to human PD-L1, PD-L1 1 ug/ml; competitor B7-1
[2] = target: T1, human PD-L1 (ligand blocking test); experiment: blocking of human PD-L1/PD-1 binding, PD-L1 10 ug/ml; competitor PD-1
[3] = target: T2, mouse PD-L1 (Cat. #50010-M08H, Sino Biological) (mouse, UniProt Q9EP73 19-238); experiment: SPR, Biacore X100, 1:1 Langmuir
T2 construct: Bought recombinant protein used in the Biacore test
Method: (§1) According to the method in the manual of human anti-capture kit (Cat. A BR-1008-39, GE), the human anti-capture antibody was covalently coupled to biosensor chip CM5 (Cat. #BR-1000-12, GE) so that a certain amount of human PD-L1 (Cat. #10084-H08H, Sino Biological) monkey PD-L1 (Cat. #90251-C08H, Sino Biological), mouse PD-L1 (Cat. #50010-M08H, Sino Biological) were affinity captured. The affinity of PD-L1 antibody reacting with PD-L1 was measured with Biacore X100, GE instrument.

[4] = target: T3, human PD-L1 (Cat. #10084-H08H, Sino Biological) (human, UniProt Q9NZQ7 19-239); experiment: SPR, Biacore X100, 1:1 Langmuir
T3 construct: Bought recombinant protein used in the Biacore test; also called hPDL1; hPD-L1
Method: as §1

[5] = target: T4, monkey PD-L1 (Cat. #90251-C08H, Sino Biological) (monkey (cyno), UniProt G7PSE7 19-239); experiment: SPR, Biacore X100, 1:1 Langmuir
T4 construct: Bought recombinant protein used in the Biacore test; also called Monkey (cyno) PD-L1; Cyno PDL1
Method: as §1

[6] = target: T3, human PD-L1 (Cat. #10084-H08H, Sino …); experiment: SPR, Biacore X100, 1:1 Langmuir; remark: listed apart in the source
Method: as §1

[7] = target: T4, monkey PD-L1 (Cat. #90251-C08H, Sino …); experiment: SPR, Biacore X100, 1:1 Langmuir; remark: listed apart in the source
Method: as §1

T2 sequence (Q9EP73 19-238 limits assumed, stated change not applied): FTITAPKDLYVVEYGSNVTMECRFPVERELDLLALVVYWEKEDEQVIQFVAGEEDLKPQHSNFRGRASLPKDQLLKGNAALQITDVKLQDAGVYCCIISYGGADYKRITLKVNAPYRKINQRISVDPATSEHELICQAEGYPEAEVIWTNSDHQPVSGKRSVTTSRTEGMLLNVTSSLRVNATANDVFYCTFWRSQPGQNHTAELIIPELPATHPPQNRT
T3 sequence (Q9NZQ7 19-239 limits assumed): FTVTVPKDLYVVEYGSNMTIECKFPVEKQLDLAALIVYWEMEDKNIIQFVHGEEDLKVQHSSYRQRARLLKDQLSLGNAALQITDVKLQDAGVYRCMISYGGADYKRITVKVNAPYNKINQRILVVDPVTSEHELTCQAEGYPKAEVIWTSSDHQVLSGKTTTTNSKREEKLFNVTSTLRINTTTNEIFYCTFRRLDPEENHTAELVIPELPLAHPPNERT
T4 sequence (G7PSE7 entry or part of it C08H C08H): as the sequence (Q9NZQ7 19-239 limits assumed) above, with A33T, A34S, S62N, R68Q, Q82R, F173L, T185A, T192I, H215L counted along it
T1 sequence (Q9NZQ7 19-238 limits assumed): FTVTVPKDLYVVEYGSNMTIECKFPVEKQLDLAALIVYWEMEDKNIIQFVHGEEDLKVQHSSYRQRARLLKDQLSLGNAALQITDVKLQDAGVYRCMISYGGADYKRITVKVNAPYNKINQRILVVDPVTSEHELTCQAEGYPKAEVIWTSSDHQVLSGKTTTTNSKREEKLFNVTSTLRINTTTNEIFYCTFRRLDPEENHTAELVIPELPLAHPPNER

B2: H7L11 (antibody, human IgG1, kappa, V domains shown)
VH: QVQLQESGPGLVKPSQTLSLTCTVSGGSISNDYWTWIRQHPGKGLEYIGMISVAGSTYHTPSLKGRVTISRDTSKNQFSLKLSSVTAADTAVYYCARSGGWLAPFDYWGRGTLVTVSS
VL: DIVMTQSPDSLAVSLGERATINCKSSQSLFYHSNQKHSLAWYQQKPGQPPKLLIYGASTRESGVPDRFSGSGSGTDFTLTISSLQAEDVAVYYCQQYYGYPYTFGGGTKVEIKR
notes: also called 9-2 H7 and 9-2 L11
Kd [3]: 135 nM
koff [3]: 0.0182 s⁻¹
kon [3]: 135000 M⁻¹ s⁻¹
Kd [4]: 1.39 nM
koff [4]: 0.000389 s⁻¹
kon [4]: 281000 M⁻¹ s⁻¹

B3: H21L67 (antibody, human IgG1, kappa, V domains shown)
VH: QVQLVQSGAEVKKPGASVKVSCKASGYTFTDKWMMWVRQAPGQGLEWMGRITPSSGFAMYNEKFKNRVTMTRDTSTSTVYMELSSLRSEDTAVYYCARGGSSYDYFDYWGQGTTVTVSS
VL: DIVLTQSPASLAVSPGQRATITCRASESVSIHGTHLMHWYQQKPGQPPKLLIYVASNVESGVPARFSGSGSGTDFTLTINPVEAEDTANYYCQQSFEDPLTFGQGTKLEIKR
notes: also called 24D5 H21 and 24D5 L67
Kd [5]: 0.0528 nM
koff [5]: 0.000124 s⁻¹
kon [5]: 2.35e+06 M⁻¹ s⁻¹
Kd [6]: 0.0522 nM
koff [6]: 0.00012 s⁻¹
kon [6]: 2.3e+06 M⁻¹ s⁻¹

B4: H12L61 (antibody, human IgG1, kappa, V domains shown)
VH: QVQLVQSGAEVKKPGASVKVSCKASGYTFTSYWMHWVRQAPGQGLEWMGRITPSSGFAMYNEKFKNRVTMTRDTSTSTVYMELSSLRSEDTAVYYCARGGSSYDYFDYWGQGTTVTVSS
VL: DIVLTQSPASLAVSPGQRATITCRASESVSIHGTHLMHWYQQKPGQPPKLLIYAASNLESGVPARFSGSGSGTDFTLTINPVEAEDTANYYCQQSFEDPLTFGQGTKLEIKR
notes: also called 24D5 H12 and 24D5 L61
Kd [4]: 0.0326 nM
koff [4]: 7.1e-05 s⁻¹
kon [4]: 2.18e+06 M⁻¹ s⁻¹

B7: H13L61 (antibody, human IgG1, kappa)
heavy: not shown
light: DIVLTQSPASLAVSPGQRATITCRASESVSIHGTHLMHWYQQKPGQPPKLLIYAASNLESGVPARFSGSGSGTDFTLTINPVEAEDTANYYCQQSFEDPLTFGQGTKLEIKRTVAAPSVFIFPPSDEQLKSGTASVVCLLNNFYPREAKVQWKVDNALQSGNSQESVTEQDSKDSTYSLSSTLTLSKADYEKHKVYACEVTHQGLSSPVTKSFNRGEC
notes: also called 24D5 H13 and 24D5 L61
Kd [4]: 0.0261 nM
koff [4]: 6.66e-05 s⁻¹
kon [4]: 2.55e+06 M⁻¹ s⁻¹

B9: H12L64 (antibody, human IgG1, kappa, V domains shown)
VH: QVQLVQSGAEVKKPGASVKVSCKASGYTFTSYWMHWVRQAPGQGLEWMGRITPSSGFAMYNEKFKNRVTMTRDTSTSTVYMELSSLRSEDTAVYYCARGGSSYDYFDYWGQGTTVTVSS
VL: DIVLTQSPASLAVSPGQRATITCRASESVSIHGTHLMHWYQQKPGQPPKLLIYVASYAASGVPARFSGSGSGTDFTLTINPVEAEDTANYYCQQSFEDPLTFGQGTKLEIKR
notes: from the HRP00052 mutant library; also called 24D5 H12 and 24D5 L64
IC50 [1]: 0.826 ng/mL
IC50 [2]: 0.215 ng/mL
Kd [7]: 0.0458 nM
koff [7]: 8.38e-05 s⁻¹
kon [7]: 1.83e+06 M⁻¹ s⁻¹
Kd [4]: 0.0326 nM
koff [4]: 7.1e-05 s⁻¹
kon [4]: 2.18e+06 M⁻¹ s⁻¹

B11: H14L61 (antibody, human IgG1, kappa, V domains shown)
VH: QVQLVQSGAEVKKPGASVKVSCKASGYTFTSYWMHWVRQAPGQGLEWMGRIHPSLGLPLYNEKFKNRVTMTRDTSTSTVYMELSSLRSEDTAVYYCARGGSSYDYFDYWGQGTTVTVSS
VL: DIVLTQSPASLAVSPGQRATITCRASESVSIHGTHLMHWYQQKPGQPPKLLIYAASNLESGVPARFSGSGSGTDFTLTINPVEAEDTANYYCQQSFEDPLTFGQGTKLEIKR
notes: also called 24D5 H14 and 24D5 L61
Kd [4]: 0.038 nM
koff [4]: 9.1e-05 s⁻¹
kon [4]: 2.4e+06 M⁻¹ s⁻¹

Now from value to binder:

IC50 [1]: 1.65 ng/mL
IC50 [2]: 0.338 ng/mL
B1: HRP00052-IgG1 (antibody)
heavy: not shown
light: DIVLTQSPASLAVSPGQRATITCRASESVSIHGTHLMHWYQQKPGQPPKLLIYAASNLESGVPARFSGSGSGTDFTLTINPVEAEDTANYYCQQSFEDPLTFGQGTKLEIKRTVAAPSVFIFPPSDEQLKSGTASVVCLLNNFYPREAKVQWKVDNALQSGNSQESVTEQDSKDSTYSLSSTLTLSKADYEKHKVYACEVTHQGLSSPVTKSFNRGEC

Kd [4]: 0.0393 nM
koff [4]: 9.53e-05 s⁻¹
kon [4]: 2.43e+06 M⁻¹ s⁻¹
B5: H17L61 (antibody, human IgG1, kappa, V domains shown)
VH: QVQLVQSGAEVKKPGASVKVSCKASGYTFTSYWMHWVRQAPGQGLEWMGRIGPNLGWAMYNEKYKNRVTMTRDTSTSTVYMELSSLGSEDTAVYYCARGGSSYDYFDYWGQGTTVTVSS
VL: DIVLTQSPASLAVSPGQRATITCRASESVSIHGTHLMHWYQQKPGQPPKLLIYAASNLESGVPARFSGSGSGTDFTLTINPVEAEDTANYYCQQSFEDPLTFGQGTKLEIKR
notes: also called 24D5 H17 and 24D5 L61

Kd [5]: 0.0526 nM
koff [5]: 0.000119 s⁻¹
kon [5]: 2.27e+06 M⁻¹ s⁻¹
Kd [6]: 0.0563 nM
koff [6]: 0.000129 s⁻¹
kon [6]: 2.29e+06 M⁻¹ s⁻¹
B6: H21L69 (antibody, human IgG1, kappa, V domains shown)
VH: QVQLVQSGAEVKKPGASVKVSCKASGYTFTDKWMMWVRQAPGQGLEWMGRITPSSGFAMYNEKFKNRVTMTRDTSTSTVYMELSSLRSEDTAVYYCARGGSSYDYFDYWGQGTTVTVSS
VL: DIVLTQSPASLAVSPGQRATITCRASESVSIHGTHLMHWYQQKPGQPPKLLIYVASNVYSGVPARFSGSGSGTDFTLTINPVEAEDTANYYCQQSFEDPLTFGQGTKLEIKR
notes: also called 24D5 H21 and 24D5 L69

Kd [4]: 0.0327 nM
koff [4]: 7.65e-05 s⁻¹
kon [4]: 2.34e+06 M⁻¹ s⁻¹
B8: H19L61 (antibody, human IgG1, kappa, V domains shown)
VH: QVQLVQSGAEVKKPGASVKVSCKASGYTFTSYWMHWVRQAPGQGLEWMGRISPGGGFTLYNEKFKNRVTMTRDTSTSTVYMELSSLRSEDTAVYYCARGGSSYDYFDYWGQGTTVTVSS
VL: DIVLTQSPASLAVSPGQRATITCRASESVSIHGTHLMHWYQQKPGQPPKLLIYAASNLESGVPARFSGSGSGTDFTLTINPVEAEDTANYYCQQSFEDPLTFGQGTKLEIKR
notes: also called 24D5 H19 and 24D5 L61

Kd [4]: 0.0325 nM
koff [4]: 7.88e-05 s⁻¹
kon [4]: 2.43e+06 M⁻¹ s⁻¹
B10: H15L61 (antibody, human IgG1, kappa, V domains shown)
VH: QVQLVQSGAEVKKPGASVKVSCKANGYTFTDKWMMWVRQAPGQGLEWMGRITPSSGFAMYNEKFKNRVTMTRDTSTSTVYMELSSLRSEDTAVYYCARGGSSYDYFDYWGQGTTVTVSS
VL: DIVLTQSPASLAVSPGQRATITCRASESVSIHGTHLMHWYQQKPGQPPKLLIYAASNLESGVPARFSGSGSGTDFTLTINPVEAEDTANYYCQQSFEDPLTFGQGTKLEIKR
notes: also called 24D5 H15 and 24D5 L61

Kd [4]: 0.0254 nM
koff [4]: 6.43e-05 s⁻¹
kon [4]: 2.53e+06 M⁻¹ s⁻¹
B12: H16L61 (antibody, human IgG1, kappa)
heavy: not shown
light: DIVLTQSPASLAVSPGQRATITCRASESVSIHGTHLMHWYQQKPGQPPKLLIYAASNLESGVPARFSGSGSGTDFTLTINPVEAEDTANYYCQQSFEDPLTFGQGTKLEIKRTVAAPSVFIFPPSDEQLKSGTASVVCLLNNFYPREAKVQWKVDNALQSGNSQESVTEQDSKDSTYSLSSTLTLSKADYEKHKVYACEVTHQGLSSPVTKSFNRGEC
notes: also called 24D5 H16 and 24D5 L61

Kd [5]: 0.0563 nM
koff [5]: 0.000122 s⁻¹
kon [5]: 2.17e+06 M⁻¹ s⁻¹
Kd [6]: 0.0533 nM
koff [6]: 0.000104 s⁻¹
kon [6]: 1.95e+06 M⁻¹ s⁻¹
B13: H21L66 (antibody, human IgG1, kappa, V domains shown)
VH: QVQLVQSGAEVKKPGASVKVSCKASGYTFTDKWMMWVRQAPGQGLEWMGRITPSSGFAMYNEKFKNRVTMTRDTSTSTVYMELSSLRSEDTAVYYCARGGSSYDYFDYWGQGTTVTVSS
VL: DIVLTQSPASLAVSPGQRATITCRASESVSIHGTHLMHWYQQKPGQPPKLLIYVASNVFSGVPARFSGSGSGTDFTLTINPVEAEDTANYYCQQSFEDPLTFGQGTKLEIKR
notes: also called 24D5 H21 and 24D5 L66
